Results: patent publication US20140162945A1 (BEIJING HANMI PHARMACEUTICAL, published 2014)
Bridges are numbered along the chain shown (N, C = ends). Where no end group is shown, it is not given here. [ ]: non-standard residue; d: D form. The star is where a group is joined. Phe(4-NO2) = N[C@@H](Cc1ccc([N+](=O)[O-])cc1)C(=O)O; Phe(4-F) = N[C@@H](Cc1ccc(F)cc1)C(=O)O; Palmitoyl = CCCCCCCCCCCCCCCC(=O)*; Met(O) = CS(=O)CC[C@H](N)C(=O)O; Phg = N[C@H](C(=O)O)c1ccccc1; Nle = CCCC[C@H](N)C(=O)O; Aib = CC(C)(N)C(=O)O

Legend:
[1] = target: T1, human GIP receptor (human, UniProt P48546 22-466); test: cell-based or functional assay
T1 sequence (looked up): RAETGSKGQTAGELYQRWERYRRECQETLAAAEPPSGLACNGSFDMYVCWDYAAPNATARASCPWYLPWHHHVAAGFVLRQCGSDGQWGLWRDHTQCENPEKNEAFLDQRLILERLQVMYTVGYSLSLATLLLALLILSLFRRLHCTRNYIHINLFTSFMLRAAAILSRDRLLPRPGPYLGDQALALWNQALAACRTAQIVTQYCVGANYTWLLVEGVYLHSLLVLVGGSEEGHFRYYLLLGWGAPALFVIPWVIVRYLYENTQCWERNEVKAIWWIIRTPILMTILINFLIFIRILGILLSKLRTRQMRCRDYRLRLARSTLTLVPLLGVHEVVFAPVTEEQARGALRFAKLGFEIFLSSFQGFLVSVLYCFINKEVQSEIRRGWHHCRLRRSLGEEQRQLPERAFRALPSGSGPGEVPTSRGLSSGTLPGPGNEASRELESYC

[2] = target: human GLP-1 receptor (human, UniProt P43220 24-463); test: cell-based or functional assay
Sequence of human GLP-1 receptor (P43220 24-463): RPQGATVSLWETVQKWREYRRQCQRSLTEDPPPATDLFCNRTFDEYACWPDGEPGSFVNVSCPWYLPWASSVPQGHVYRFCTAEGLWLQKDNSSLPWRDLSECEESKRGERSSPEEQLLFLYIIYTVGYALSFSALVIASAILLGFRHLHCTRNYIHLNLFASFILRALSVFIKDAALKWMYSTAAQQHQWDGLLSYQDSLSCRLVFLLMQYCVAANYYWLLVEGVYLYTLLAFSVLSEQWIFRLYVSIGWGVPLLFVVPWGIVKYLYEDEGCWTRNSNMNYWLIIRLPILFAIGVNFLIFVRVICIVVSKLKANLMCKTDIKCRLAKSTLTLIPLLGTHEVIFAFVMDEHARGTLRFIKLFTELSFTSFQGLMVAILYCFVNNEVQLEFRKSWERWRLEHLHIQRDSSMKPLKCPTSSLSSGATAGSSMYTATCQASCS

| Binder | EC50, GIP Receptor cAMP induction [1] | EC50, GLP-1 Receptor cAMP induction [2] | Relative Potency, GIP Receptor [1] | Relative Potency, GLP-1 Receptor [2] |
| --- | --- | --- | --- | --- |
| Y[Aib]EGTFISDYSIA[Nle]EKIHQQDFVNWLLAQ-NH2 [Analog 010] | 11.5 nM | > 2000 nM |  |  |
| Y[Aib]EGTFTSDYSIF[Met(O)]EKIHQQDFVNWLLAQ-NH2 [Analog 007] | 19 nM | 836 nM |  |  |
| Y[Aib]EGTFISDYSIA[Met(O)]EKIHQQDFVNWLLAQ-NH2 (N-terminus assumed; SMILES CC[C@H](C)[C@H](NC(=O)[C@H](CO)NC(=O)[C@H](Cc1ccc(O)cc1)NC(=O)[C@H](CC(=O)O)NC(=O)[C@H](CO)NC(=O)[C@@H](NC(=O)[C@H](Cc1ccccc1)NC(=O)[C@@H](NC(=O)CNC(=O)[C@H](CCC(=O)O)NC(=O)C(C)(C)NC(=O)[C@@H](N)Cc1ccc(O)cc1)[C@@H](C)O)[C@@H](C)CC)C(=O)N[C@@H](C)C(=O)N[C@@H](CCS(C)=O)C(=O)N[C@@H](CCC(=O)O)C(=O)N[C@@H](CCCCN)C(=O)N[C@H](C(=O)N[C@@H](Cc1c[nH]cn1)C(=O)N[C@@H](CCC(N)=O)C(=O)N[C@@H](CCC(N)=O)C(=O)N[C@@H](CC(=O)O)C(=O)N[C@@H](Cc1ccccc1)C(=O)N[C@H](C(=O)N[C@@H](CC(N)=O)C(=O)N[C@@H](Cc1c[nH]c2ccccc12)C(=O)N[C@@H](CC(C)C)C(=O)N[C@@H](CC(C)C)C(=O)N[C@@H](C)C(=O)N[C@@H](CCC(N)=O)C(N)=O)C(C)C)[C@@H](C)CC) [Analog 006] | 6.66 nM | > 2000 nM |  |  |
| Y[Aib]EGTFTSDYSI[Phe(4-F)][Met(O)]EKIHQQDFVNWLLAQ-NH2 [Analog 004] | 14.6 nM | 926 nM |  |  |
| Y[Aib]EGTFTSDYSIYMEKIHQQDFVNWLLAQ-NH2 [Analog 003] | 0.18 nM | 483 nM | 77.7% |  |
| Y[Aib]EGTFTSDYSIYMEKEAVK(Palmitoyl)EFIAWLVKG-NH2 (N-terminus assumed; SMILES CCCCCCCCCCCCCCCC(=O)NCCCC[C@H](NC(=O)[C@@H](NC(=O)[C@H](C)NC(=O)[C@H](CCC(=O)O)NC(=O)[C@H](CCCCN)NC(=O)[C@H](CCC(=O)O)NC(=O)[C@H](CCSC)NC(=O)[C@H](Cc1ccc(O)cc1)NC(=O)[C@@H](NC(=O)[C@H](CO)NC(=O)[C@H](Cc1ccc(O)cc1)NC(=O)[C@H](CC(=O)O)NC(=O)[C@H](CO)NC(=O)[C@@H](NC(=O)[C@H](Cc1ccccc1)NC(=O)[C@@H](NC(=O)CNC(=O)[C@H](CCC(=O)O)NC(=O)C(C)(C)NC(=O)[C@@H](N)Cc1ccc(O)cc1)[C@@H](C)O)[C@@H](C)O)[C@@H](C)CC)C(C)C)C(=O)N[C@@H](CCC(=O)O)C(=O)N[C@@H](Cc1ccccc1)C(=O)N[C@H](C(=O)N[C@@H](C)C(=O)N[C@@H](Cc1c[nH]c2ccccc12)C(=O)N[C@@H](CC(C)C)C(=O)N[C@H](C(=O)N[C@@H](CCCCN)C(=O)NCC(N)=O)C(C)C)[C@@H](C)CC) [Analog 067] | 3.7 nM | 7.87 nM | 4.6% | 13.9% |
| Y[Aib]EGTFTSDYSIAMEKIHQQDFVNWLLAQ-NH2 [Analog 002] | 11.1 nM | 995 nM |  |  |
| Y[Aib]EGTFTSDYSIF[Nle]EKIHQQDFVNWLLAQ-NH2 [Analog 011] | 693 nM | 1480 nM |  |  |
| Y[Aib]EGTFTSDYSI[Phe(4-NO2)][Nle]EKIHQQDFVNWLLAQ-NH2 [Analog 008] | 24.2 nM | 1580 nM |  |  |
| Y[Aib]EGTFTSDYSEYMEKEAVREFIAWLVKGK(Palmitoyl)-NH2 (lactam 12-16; N-terminus assumed; SMILES CCCCCCCCCCCCCCCC(=O)NCCCC[C@H](NC(=O)CNC(=O)[C@H](CCCCN)NC(=O)[C@@H](NC(=O)[C@H](CC(C)C)NC(=O)[C@H](Cc1c[nH]c2ccccc12)NC(=O)[C@H](C)NC(=O)[C@@H](NC(=O)[C@H](Cc1ccccc1)NC(=O)[C@H](CCC(=O)O)NC(=O)[C@H](CCCNC(=N)N)NC(=O)[C@@H](NC(=O)[C@H](C)NC(=O)[C@H](CCC(=O)O)NC(=O)[C@@H]1CCCCNC(=O)CC[C@H](NC(=O)[C@H](CO)NC(=O)[C@H](Cc2ccc(O)cc2)NC(=O)[C@H](CC(=O)O)NC(=O)[C@H](CO)NC(=O)[C@@H](NC(=O)[C@H](Cc2ccccc2)NC(=O)[C@@H](NC(=O)CNC(=O)[C@H](CCC(=O)O)NC(=O)C(C)(C)NC(=O)[C@@H](N)Cc2ccc(O)cc2)[C@@H](C)O)[C@@H](C)O)C(=O)N[C@@H](Cc2ccc(O)cc2)C(=O)N[C@@H](CCSC)C(=O)N[C@@H](CCC(=O)O)C(=O)N1)C(C)C)[C@@H](C)CC)C(C)C)C(N)=O) [Analog 084] | 1.34 nM | 4.8 nM | 8.8% | 22.2% |
| Y[Aib]EGTFTSDYSIYMEKEAVREFIAWLVKGRRRRRR-NH2 (N-terminus assumed; SMILES CC[C@H](C)[C@H](NC(=O)[C@H](Cc1ccccc1)NC(=O)[C@H](CCC(=O)O)NC(=O)[C@H](CCCNC(=N)N)NC(=O)[C@@H](NC(=O)[C@H](C)NC(=O)[C@H](CCC(=O)O)NC(=O)[C@H](CCCCN)NC(=O)[C@H](CCC(=O)O)NC(=O)[C@H](CCSC)NC(=O)[C@H](Cc1ccc(O)cc1)NC(=O)[C@@H](NC(=O)[C@H](CO)NC(=O)[C@H](Cc1ccc(O)cc1)NC(=O)[C@H](CC(=O)O)NC(=O)[C@H](CO)NC(=O)[C@@H](NC(=O)[C@H](Cc1ccccc1)NC(=O)[C@@H](NC(=O)CNC(=O)[C@H](CCC(=O)O)NC(=O)C(C)(C)NC(=O)[C@@H](N)Cc1ccc(O)cc1)[C@@H](C)O)[C@@H](C)O)[C@@H](C)CC)C(C)C)C(=O)N[C@@H](C)C(=O)N[C@@H](Cc1c[nH]c2ccccc12)C(=O)N[C@@H](CC(C)C)C(=O)N[C@H](C(=O)N[C@@H](CCCCN)C(=O)NCC(=O)N[C@@H](CCCNC(=N)N)C(=O)N[C@@H](CCCNC(=N)N)C(=O)N[C@@H](CCCNC(=N)N)C(=O)N[C@@H](CCCNC(=N)N)C(=O)N[C@@H](CCCNC(=N)N)C(=O)N[C@@H](CCCNC(=N)N)C(N)=O)C(C)C) [Analog 075] | 1.45 nM | 1.41 nM | 8.3% | 77.7% |
| Y[Aib]EGTFTSDYSI[Phg][Nle]EKIHQQDFVNWLLAQ-NH2 [Analog 009] | 22.2 nM | > 2000 nM |  |  |
| Y[Aib]EGTFTSDYSI[Phe(4-NO2)][Met(O)]EKIHQQDFVNWLLAQ-NH2 [Analog 005] | 76.5 nM | > 2000 nM |  |  |
